According to article PMC9871967, “A hnRNPA2B1 agonist effectively inhibits HBV and SARS-CoV-2 omicron in vivo” (Protein & Cell, 2022):

Molecular target: the molecule itself
Test: native gel or EMSA; HepG2.2.15 cells treated with PAC5 (10 μmol/L) for the indicated time; cell lysates on native PAGE, hnRNPA2B1-dimerization assay by immunoblot

B1: heterogeneous nuclear ribonucleoprotein A2B1 (natural protein, UniProt P22626 1-353, looked up)
chain: MEKTLETVPLERKKREKEQFRKLFIGGLSFETTEESLRNYYEQWGKLTDCVVMRDPASKRSRGFGFVTFSSMAEVDAAMAARPHSIDGRVVEPKRAVAREESGKPGAHVTVKKLFVGGIKEDTEEHHLRDYFEEYGKIDTIEIITDRQSGKKRGFGFVTFDDHDPVDKIVLQKYHTINGHNAEVRKALSRQEMQEVQSSRSGRGGNFGFGDSRGGGGNFGPGPGSNFRGGSDGYGSGRGFGDGYNGYGGGPGGGNFGGSPGYGGGRGGYGGGGPGYGNQGGGYGGGYDNYGGGNYGSGNYNDFGNYNQQPSNYGPMKSGNFGGSRNMGGPYGGGNYGPGGSGGSGGYGGRSRY
notes: heterogeneous nuclear ribonucleoprotein A2B1, endogenous in human hepatoma cell lines, precipitated and detected with anti-hnRNPA2B1 (Santa Cruz sc-32316); Endogenous protein; also called hnRNPA2B1; source: endogenous, HepG2.2.15, HepAD38 and HepG2 cell lysates
stoichiometry N: 2
